Data as given in US12630600B2 (MEDIMMUNE LIMITED, priority 2022, dated 2026).
Starred links: 1 amine or outer side, 2 acyl side, 3 side chain; linkers in the order of their positions; H or OH if unused. Non-standard residues stand in square brackets, D forms with d. Groups on a side chain read outwards from the residue. Primed or numbered codes have the meaning given here. No end group written: not given here. *: point of attachment. C20 diacid = O=C(O)CCCCCCCCCCCCCCCCCCC(=O)*; C18 diacid = O=C(O)CCCCCCCCCCCCCCCCC(=O)*; γGlu = O=C(O)[C@H](CCC(=O)[*:2])N[*:1]; Stearoyl = CCCCCCCCCCCCCCCCCC(=O)*; αMeF = C[C@](N)(Cc1ccccc1)C(=O)O; PEG2′ = polyethylene glycol 2; αMeS = C[C@](N)(CO)C(=O)O; AEEA = NCCOCCOCC(=O)O; Aib = CC(C)(N)C(=O)O

Columns and labels:
human GLP-1 receptor = human GLP-1 receptor (human, UniProt P43220); assay: cell-based or functional assay
human glucagon receptor = human glucagon receptor (human, UniProt P47871); assay: cell-based or functional assay

Row | cAMP production, hGLP-1R EC50 (pM) (human GLP-1 receptor) | cAMP production, hGluc-R EC50 (pM) (human glucagon receptor) | Binder
1 | 20.5 pM | 122 pM | H[Aib]HGS[αMeF]TSDVSK[αMeF]LDSK([AEEA-AEEA-γGlu-C18 diacid])AARD[αMeF]VQSIANT-NH2 (N-terminus assumed; SMILES CC[C@H](C)[C@H](NC(=O)[C@H](CO)NC(=O)[C@H](CCC(N)=O)NC(=O)[C@@H](NC(=O)[C@](C)(Cc1ccccc1)NC(=O)[C@H](CC(=O)O)NC(=O)[C@H](CCCNC(=N)N)NC(=O)[C@H](C)NC(=O)[C@H](C)NC(=O)[C@H](CCCCNC(=O)COCCOCCNC(=O)COCCOCCNC(=O)CC[C@H](NC(=O)CCCCCCCCCCCCCCCCC(=O)O)C(=O)O)NC(=O)[C@H](CO)NC(=O)[C@H](CC(=O)O)NC(=O)[C@H](CC(C)C)NC(=O)[C@](C)(Cc1ccccc1)NC(=O)[C@H](CCCCN)NC(=O)[C@H](CO)NC(=O)[C@@H](NC(=O)[C@H](CC(=O)O)NC(=O)[C@H](CO)NC(=O)[C@@H](NC(=O)[C@](C)(Cc1ccccc1)NC(=O)[C@H](CO)NC(=O)CNC(=O)[C@H](Cc1c[nH]cn1)NC(=O)C(C)(C)NC(=O)[C@@H](N)Cc1c[nH]cn1)[C@@H](C)O)C(C)C)C(C)C)C(=O)N[C@@H](C)C(=O)N[C@@H](CC(N)=O)C(=O)N[C@H](C(N)=O)[C@@H](C)O) [Peptide 18]
2 | 378 pM | 68.8 pM | H[Aib]HGS[αMeF]TSDVSK[αMeF]LDSK([γGlu-C18 diacid])AAQD[αMeF]VESIANT-NH2 (N-terminus assumed; SMILES CC[C@H](C)[C@H](NC(=O)[C@H](CO)NC(=O)[C@H](CCC(=O)O)NC(=O)[C@@H](NC(=O)[C@](C)(Cc1ccccc1)NC(=O)[C@H](CC(=O)O)NC(=O)[C@H](CCC(N)=O)NC(=O)[C@H](C)NC(=O)[C@H](C)NC(=O)[C@H](CCCCNC(=O)CC[C@H](NC(=O)CCCCCCCCCCCCCCCCC(=O)O)C(=O)O)NC(=O)[C@H](CO)NC(=O)[C@H](CC(=O)O)NC(=O)[C@H](CC(C)C)NC(=O)[C@](C)(Cc1ccccc1)NC(=O)[C@H](CCCCN)NC(=O)[C@H](CO)NC(=O)[C@@H](NC(=O)[C@H](CC(=O)O)NC(=O)[C@H](CO)NC(=O)[C@@H](NC(=O)[C@](C)(Cc1ccccc1)NC(=O)[C@H](CO)NC(=O)CNC(=O)[C@H](Cc1c[nH]cn1)NC(=O)C(C)(C)NC(=O)[C@@H](N)Cc1c[nH]cn1)[C@@H](C)O)C(C)C)C(C)C)C(=O)N[C@@H](C)C(=O)N[C@@H](CC(N)=O)C(=O)N[C@H](C(N)=O)[C@@H](C)O) [Peptide 21]
3 | 1230 pM | 2720 pM | H[Aib]HGS[αMeF]TSDVSK[αMeF]LDSK([AEEA-AEEA-γGlu-γGlu-C20 diacid])AAQD[αMeF]VESIANT-NH2 (N-terminus assumed; SMILES CC[C@H](C)[C@H](NC(=O)[C@H](CO)NC(=O)[C@H](CCC(=O)O)NC(=O)[C@@H](NC(=O)[C@](C)(Cc1ccccc1)NC(=O)[C@H](CC(=O)O)NC(=O)[C@H](CCC(N)=O)NC(=O)[C@H](C)NC(=O)[C@H](C)NC(=O)[C@H](CCCCNC(=O)COCCOCCNC(=O)COCCOCCNC(=O)CC[C@H](NC(=O)CC[C@H](NC(=O)CCCCCCCCCCCCCCCCCCC(=O)O)C(=O)O)C(=O)O)NC(=O)[C@H](CO)NC(=O)[C@H](CC(=O)O)NC(=O)[C@H](CC(C)C)NC(=O)[C@](C)(Cc1ccccc1)NC(=O)[C@H](CCCCN)NC(=O)[C@H](CO)NC(=O)[C@@H](NC(=O)[C@H](CC(=O)O)NC(=O)[C@H](CO)NC(=O)[C@@H](NC(=O)[C@](C)(Cc1ccccc1)NC(=O)[C@H](CO)NC(=O)CNC(=O)[C@H](Cc1c[nH]cn1)NC(=O)C(C)(C)NC(=O)[C@@H](N)Cc1c[nH]cn1)[C@@H](C)O)C(C)C)C(C)C)C(=O)N[C@@H](C)C(=O)N[C@@H](CC(N)=O)C(=O)N[C@H](C(N)=O)[C@@H](C)O) [Peptide 22]
4 | 33 pM | 105 pM | H[Aib]HGS[αMeF]TSDVSK[αMeF]LDSK([AEEA-AEEA-γGlu-C18 diacid])AARD[αMeF]IA[Aib]IANT-NH2 (N-terminus assumed; SMILES CC[C@H](C)[C@H](NC(=O)C(C)(C)NC(=O)[C@H](C)NC(=O)[C@@H](NC(=O)[C@](C)(Cc1ccccc1)NC(=O)[C@H](CC(=O)O)NC(=O)[C@H](CCCNC(=N)N)NC(=O)[C@H](C)NC(=O)[C@H](C)NC(=O)[C@H](CCCCNC(=O)COCCOCCNC(=O)COCCOCCNC(=O)CC[C@H](NC(=O)CCCCCCCCCCCCCCCCC(=O)O)C(=O)O)NC(=O)[C@H](CO)NC(=O)[C@H](CC(=O)O)NC(=O)[C@H](CC(C)C)NC(=O)[C@](C)(Cc1ccccc1)NC(=O)[C@H](CCCCN)NC(=O)[C@H](CO)NC(=O)[C@@H](NC(=O)[C@H](CC(=O)O)NC(=O)[C@H](CO)NC(=O)[C@@H](NC(=O)[C@](C)(Cc1ccccc1)NC(=O)[C@H](CO)NC(=O)CNC(=O)[C@H](Cc1c[nH]cn1)NC(=O)C(C)(C)NC(=O)[C@@H](N)Cc1c[nH]cn1)[C@@H](C)O)C(C)C)[C@@H](C)CC)C(=O)N[C@@H](C)C(=O)N[C@@H](CC(N)=O)C(=O)N[C@H](C(N)=O)[C@@H](C)O) [Peptide 16]
5 | 45 pM | 135 pM | H[Aib]HGS[αMeF]TSDVSK[αMeF]LDSK([AEEA-AEEA-γGlu-C18 diacid])AARD[αMeF]VESIANT-NH2 (N-terminus assumed; SMILES CC[C@H](C)[C@H](NC(=O)[C@H](CO)NC(=O)[C@H](CCC(=O)O)NC(=O)[C@@H](NC(=O)[C@](C)(Cc1ccccc1)NC(=O)[C@H](CC(=O)O)NC(=O)[C@H](CCCNC(=N)N)NC(=O)[C@H](C)NC(=O)[C@H](C)NC(=O)[C@H](CCCCNC(=O)COCCOCCNC(=O)COCCOCCNC(=O)CC[C@H](NC(=O)CCCCCCCCCCCCCCCCC(=O)O)C(=O)O)NC(=O)[C@H](CO)NC(=O)[C@H](CC(=O)O)NC(=O)[C@H](CC(C)C)NC(=O)[C@](C)(Cc1ccccc1)NC(=O)[C@H](CCCCN)NC(=O)[C@H](CO)NC(=O)[C@@H](NC(=O)[C@H](CC(=O)O)NC(=O)[C@H](CO)NC(=O)[C@@H](NC(=O)[C@](C)(Cc1ccccc1)NC(=O)[C@H](CO)NC(=O)CNC(=O)[C@H](Cc1c[nH]cn1)NC(=O)C(C)(C)NC(=O)[C@@H](N)Cc1c[nH]cn1)[C@@H](C)O)C(C)C)C(C)C)C(=O)N[C@@H](C)C(=O)N[C@@H](CC(N)=O)C(=O)N[C@H](C(N)=O)[C@@H](C)O) [Peptide 17]
6 | 1.06 pM | 30 pM | H[αMeS]QGS[αMeF]TSDVSKILDSK([PEG2′-PEG2′-γGlu-Stearoyl])AAQD[αMeF]VQ[Aib]IINT-NH2 [Peptide 133]
7 | 38.3 pM | 133 pM | H[Aib]HGS[αMeF]TSDVSK[αMeF]LDSK([AEEA-AEEA-γGlu-γGlu-C18 diacid])AARD[αMeF]VQ[Aib]IANT-NH2 (N-terminus assumed; SMILES CC[C@H](C)[C@H](NC(=O)C(C)(C)NC(=O)[C@H](CCC(N)=O)NC(=O)[C@@H](NC(=O)[C@](C)(Cc1ccccc1)NC(=O)[C@H](CC(=O)O)NC(=O)[C@H](CCCNC(=N)N)NC(=O)[C@H](C)NC(=O)[C@H](C)NC(=O)[C@H](CCCCNC(=O)COCCOCCNC(=O)COCCOCCNC(=O)CC[C@H](NC(=O)CC[C@H](NC(=O)CCCCCCCCCCCCCCCCC(=O)O)C(=O)O)C(=O)O)NC(=O)[C@H](CO)NC(=O)[C@H](CC(=O)O)NC(=O)[C@H](CC(C)C)NC(=O)[C@](C)(Cc1ccccc1)NC(=O)[C@H](CCCCN)NC(=O)[C@H](CO)NC(=O)[C@@H](NC(=O)[C@H](CC(=O)O)NC(=O)[C@H](CO)NC(=O)[C@@H](NC(=O)[C@](C)(Cc1ccccc1)NC(=O)[C@H](CO)NC(=O)CNC(=O)[C@H](Cc1c[nH]cn1)NC(=O)C(C)(C)NC(=O)[C@@H](N)Cc1c[nH]cn1)[C@@H](C)O)C(C)C)C(C)C)C(=O)N[C@@H](C)C(=O)N[C@@H](CC(N)=O)C(=O)N[C@H](C(N)=O)[C@@H](C)O) [Peptide 19]
8 | 33.1 pM | 61.4 pM | H[Aib]HGS[αMeF]TSDVSK[αMeF]LDSK([AEEA-AEEA-γGlu-C18 diacid])AARD[αMeF]VE[Aib]IANT-NH2 (N-terminus assumed; SMILES CC[C@H](C)[C@H](NC(=O)C(C)(C)NC(=O)[C@H](CCC(=O)O)NC(=O)[C@@H](NC(=O)[C@](C)(Cc1ccccc1)NC(=O)[C@H](CC(=O)O)NC(=O)[C@H](CCCNC(=N)N)NC(=O)[C@H](C)NC(=O)[C@H](C)NC(=O)[C@H](CCCCNC(=O)COCCOCCNC(=O)COCCOCCNC(=O)CC[C@H](NC(=O)CCCCCCCCCCCCCCCCC(=O)O)C(=O)O)NC(=O)[C@H](CO)NC(=O)[C@H](CC(=O)O)NC(=O)[C@H](CC(C)C)NC(=O)[C@](C)(Cc1ccccc1)NC(=O)[C@H](CCCCN)NC(=O)[C@H](CO)NC(=O)[C@@H](NC(=O)[C@H](CC(=O)O)NC(=O)[C@H](CO)NC(=O)[C@@H](NC(=O)[C@](C)(Cc1ccccc1)NC(=O)[C@H](CO)NC(=O)CNC(=O)[C@H](Cc1c[nH]cn1)NC(=O)C(C)(C)NC(=O)[C@@H](N)Cc1c[nH]cn1)[C@@H](C)O)C(C)C)C(C)C)C(=O)N[C@@H](C)C(=O)N[C@@H](CC(N)=O)C(=O)N[C@H](C(N)=O)[C@@H](C)O) [Peptide 15]
